This data set deals with hyperactive Tn5 transposase (EK54, MA56, LP372) expressed from pMIR86 (UniProt Q46731 Q46731:1-476, E54K,M56A,L372P). The experiment in a line: cell_activity; NIH3T3 co-transfection. The settings on record: tags: pCI mammalian expression vector; chain copies: 2; PshA I blunt-ended linear transposon, ME inverted repeats at both ends. From the text: C. Tn5 transposase expressed in eukaryotic cells increases the number of integration events. Plasmid pMIR86 encoding transposase was co-transfected into NIH3T3 cells with transposon plasmid pMIR136 (pSEAP-Tn). The pMIR136 was either linearized with PshA I to form the transposon (SEAP-Tn), or cut with Eco R V/Sse8387 I to remove Tn5 elements from the transposon (SEAP), or left supercoiled (pSEAP-Tn). Control reactions included the same transposon DNA samples but with pCI-Luc (Promega) instead of pMIR86. […] No increase in colonies was observed when linear transposon DNA lacking flanking recognition elements was used.

B1: SEAP-Tn linear transposon with mosaic ends (dsDNA)
DNA 1: CTGTCTCTTATACACATCT
DNA 2: AGATGTGTATAAGAGACAG
As to B1, the activity was 1.6 fold colonies vs control plasmid.

The record behind these values is patent publication US20030143740, “Processes for transposase mediated integration into mammalian cells” (published 2003).
